Data from the supplement of paper PMC10567573.
± gives the standard deviation.

Assay: protein stability index of a GFP-peptide fusion (GPS, HEK-293T) (PSI 1-6); higher = more stable
Conditions: c terminus: a fixed tail appended
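Further: 24-mer peptide tiles fused after GFP, lentivirally expressed, FACS-sorted into six equal bins by GFP/DsRed ratio, decoded by Illumina sequencing, PSI is the read-weighted mean bin number.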

Sequence	protein stability index (treatment: DMSO)	protein stability index (treatment: MLN4924 1 uM, 8 h)
LTHFSRRYCQCNPDDSTSEDGIHT [PSD2]	3.6 ± 0.27	3.77 ± 0.3
ECQLYPRRSQQQQVPVVDFQAELR [SNURF]	4.3 ± 0.18	4.31 ± 0.084
FPNRTDQQCQYRWLRVLNPDLVKG [MYBL2]	2.4 ± 0.34	2.44 ± 0.53
GEKPFECRQRLIFEQTPALTKHEW [ZNF8]	3.04 ± 0.85	2.93 ± 0.18
TWWRVRNAANRTGYVPSNYVERKN [NCK2]	2.86 ± 0.14	3.06 ± 0.27
ERMPPSGAARSFQEVTEPAVVAVD [PXN]	4.95 ± 0.17	5.29 ± 0.31
YYSDKYDDEEFEYRHVMLPKDIAK [CKS1B]	3.81 ± 0.12	3.91 ± 0.14
IQLRRWQETRGELQCRSPPRLHGA [TBC1D10A]	2.74 ± 0.23	2.85 ± 0.39
ESPRWLYSQGRLSEAEEALYLIAK [SLC22A15]	2.75 ± 0.21	2.66 ± 0.45
HVNFSHLTTKDYMEMYNVIMTVKE [SLC6A17]	2.41 ± 0.32	2.44 ± 0.52
RWSSDLNKHLTTHQGIKPYKCSWC [ZNF75A]	2.55 ± 0.45	2.73 ± 0.49
LACLHVACVVQQKDARQWFAELSV [CCNC]	3.22 ± 0.61	3.28 ± 0.45
KSMKPYNYCSAYESFYESTSPECA [NEUROD6]	3.15 ± 0.17	3.23 ± 0.35
EKNKHIFPASRWEPYDPEKKWDKY [FAM50A]	3.52 ± 0.2	3.6 ± 0.14
FCQTDQTCICYLCMFQEHKNHSTV [TRIM29]	2.2 ± 0.085	2.66 ± 0.32
ADSGNFKRCINLWKYALDMQQSNL [FEM1C]	2.15 ± 0.37	2.21 ± 0.37
QQENKVLKIELETYKLKCKALQEE [CCDC6]	4.28 ± 0.12	4.27 ± 0.14
HKPKNSEELYKEIDGVATTRYSVA [PTPRD]	4.43 ± 0.17	4.66 ± 0.21
SSWKHGSGTQYVSTRQTQSWTAVT [C18orf25]	2.5 ± 0.11	2.52 ± 0.47
TLFKKIQALQKEKETLAVNYEKEE [CCDC6]	3.52 ± 0.27	3.35 ± 0.086
SIQMNVAEVSWEPGRREGCDICAG [RPS21]	2.7 ± 0.92	3.35 ± 1.3
ATSGPPGIQPGQEPPVTMIFMGYQ [PALM]	2.47 ± 0.24	2.38 ± 0.14
QHLKSKALRERWLLEGTPSSASEG [PALM]	4.25 ± 0.13	4.33 ± 0.2

Sequence	protein stability index (treatment: DMSO)	protein stability index (treatment: MLN4924 1 uM, 8 h)
SGLRGGILIELAMRGRIYLEPPTM [GOLPH3L]	3.09 ± 0.41	2.74 ± 0.76
PKGWRQLAQEAEAWLNYPCFKNWD [OAS1]	2.72 ± 0.23	2.82 ± 0.18
RRLKYFFMSPCDKFRAKGRKPCKL [MCOLN1]	2.38 ± 0.38	2.71 ± 0.16
SGCLRISIQKLSNESRYMIYEFWE [NECAB1]	2.21 ± 0.95	2.64 ± 0.82
CYNCEEEAMYHCCWNTSYCSIKCQ [ZMYND11]	2.61 ± 0.52	2.79 ± 0.47
EVLSLGVQVPEAWEELLTMKVEAK [ZSCAN9]	3.53 ± 0.67	3.45 ± 0.22
THNIAHGSLGFEPVYVSCIAQDTC [SPAG8]	2.69 ± 0.14	2.64 ± 0.2
IDEHHFVAVALRKPDGSRHQDVPS [AASDHPPT]	4 ± 0.17	4.07 ± 0.19
LARGIHVAGILSLLLGTAYSFYLF [POMT2]	2.6 ± 0.62	2.65 ± 0.47
NLISLLALRVLAEQNIIPSATNVT [TENT5C]	2.94 ± 0.39	3.12 ± 0.36
CLTLATAVVQLYLALPPGAEHWTK [WAS]	2.85 ± 0.87	2.77 ± 0.28
GHLFPPPTPIFAGGANDRWVRSVS [WSB1]	2.66 ± 0.18	2.39 ± 0.4
MPSETLWEIAKAEVEKRGINGSEG [DYNC2LI1]	4.88 ± 0.15	5.1 ± 0.1
RRAGEGRRSPRPDHPGTPPHKTFR [WEE1]	4.78 ± 0.41	4.83 ± 0.32
SFTQGEGARPLSTRVPRAAIVFTD [MATN2]	3.5 ± 0.38	3.55 ± 0.12
YGHDYPRAAYQQVIQPALPGQPLP [TRAF3IP2]	2.55 ± 0.71	3.25 ± 0.69
CPWHYLHLSGSHNTLAPTCFKAKL [RSPH3]	2.35 ± 0.23	2.59 ± 0.13
GSRSNGMWAHSMTVQDYQDLIDRG [ATE1]	3.92 ± 0.29	4.08 ± 0.29
DGMLYILGGEDGEKELISMECYDI [GAN]	2.05 ± 0.18	2.26 ± 0.42
KKPLAGSVDEQNALREVYAHAVLG [WEE1]	3.43 ± 0.18	3.54 ± 0.52
ILSGARVNAKDNMWLTPLHRAVAS [ANKRD44]	2.34 ± 0.1	2.4 ± 0.27
WTDSEVDSSCSGQPIHLWQFLKEL [SPDEF]	2.93 ± 0.24	3.1 ± 0.39
GQRLAVCVPAHPPPCAWACPVPAH [CTBP1-DT]	2.7 ± 0.39	2.8 ± 0.1

Sequence	protein stability index (treatment: DMSO)	protein stability index (treatment: MLN4924 1 uM, 8 h)
FIEGYCTPEEVIWEALNMMGLYDG [MAGEA10]	2.48 ± 0.24	2.17 ± 0.26
SEIIQITTGSKELDKLLQGGIETG [RAD51]	4.11 ± 0.34	4.3 ± 0.26
EEERAFWMENNGHVAGEQMLEDGP [CCDC70]	5.37 ± 0.35	5.2 ± 0.45
IVANTMPTHLSNGQMSTPETPQPS [HNF4A]	4.43 ± 0.22	4.51 ± 0.15
ALMHVMQKRSRAIHSSDEGEDQAG [WAS]	4.25 ± 0.27	4.49 ± 0.13
GLETGDWGGAPKEGSIWRGAQMEK [ZSWIM9]	4.07 ± 0.3	4.45 ± 0.22
SGSESPSDSGKDLPEPSKRGPPHG [MYCL]	5.4 ± 0.24	5.32 ± 0.12
AEGIGSTVFRAILDYYKTGIIRCP [BTBD10]	2.12 ± 0.42	1.99 ± 0.2
ESIDFDQGELADQDVDPVHNLIEQ [FBXO33]	5.51 ± 0.16	5.22 ± 0.26
EVAAKNQSLEGDTTKGTSEMSEKR [MLH1]	5.15 ± 0.26	5.46 ± 0.56
NSTQADEGKTKKGVLEAPDTQVNP [FBXO34]	5.49 ± 0.19	5.41 ± 0.18
DLALDLGPQSRELTLKVLRSSSCG [C2CD2L]	3.28 ± 0.18	3.62 ± 0.34
LVMASLYHIYVALEEEIERNKESP [HMOX1]	2.27 ± 0.19	2.22 ± 0.44
SWLTRRAIRPENRAPGAGLGQDRQ [EMD]	3.98 ± 0.27	4.05 ± 0.19
DPSIFTAQPNTMLGRMFGSGREHN [BTBD10]	3.95 ± 0.27	3.79 ± 0.28
ALGAMWKLHKSQLSQALNGLSDRA [TRIM9]	2.21 ± 0.29	2.34 ± 0.35
DLSMKGGASTTSTTPSALSGEPPT [NOL4L]	5.16 ± 0.32	5.28 ± 0.28
TGSKEKGLTKKRTKVQKKSLLLKK [NOP53]	4.48 ± 0.24	4.72 ± 0.22
ESGLGHFSLRVHTGCHKKLGPEAR	3.24 ± 0.46	3.32 ± 0.24
FSRAGISEAQLTDAETSKLIYDFI [WAS]	2.57 ± 0.2	2.95 ± 0.29
SSVYKQQWFAMLRAEQDSEVGPQE [GMCL1]	4.08 ± 0.37	4.16 ± 0.24
GHPVGLALEAAVHVQKLSQECLKQ [TRIM14]	3.07 ± 0.2	3.14 ± 0.28
GSKVTCRGLLEYFKAYIKIYQGED [ATL3]	2.31 ± 0.14	

Sequence	protein stability index (treatment: DMSO)	protein stability index (treatment: MLN4924 1 uM, 8 h)
ALVYSITAQSTFNDLQDLREQILR [RAP1B]	2.27 ± 0.33	2.42 ± 0.4
ETKGQINNSIKDLTDGHFENILAD [SERPINB5]	4.84 ± 0.42	4.9 ± 0.32
QQIAMDPEEVKSLDSNGAGEKSEN [BCL2L13]	5.6 ± 0.45	5.63 ± 0.3
RTVDGSPMMKAAMYSVEITVEKDK [PALM]	4.09 ± 0.18	4.1 ± 0.23
IIMWDIGGRKGRTLLLQGHHDKVQ [WDFY1]	2.08 ± 0.55	2.2 ± 0.12
LTEIYRIVSQKQMSDRRENDMSPS [RAB11A]	3.54 ± 0.2	3.81 ± 0.12
QILELLVLEQFLTILPQEIQSRVQ [ZNF263]	3.06 ± 0.47	3.43 ± 0.49
EPGGPGWLPESDCETVTCCLFSER [SMAD6]	3.96 ± 0.35	4.16 ± 0.42
DPDEEHLKKSSQVPRTEAPAPASS [PDLIM7]	5.39 ± 0.17	5.5 ± 0.25
PVAQSTDGIRGKVGHARGLHAWQI [SPSB4]	2.68 ± 0.37	2.84 ± 0.29
ARKQDMNTKRAIHTLAVMNDRLYA [KLHL14]	2.55 ± 0.24	2.93 ± 0.36
GIKVQNGGIVTDTPASNHLPGWED [SLC19A2]	4.4 ± 0.23	4.77 ± 0.28
SNEQLKVTQEPRAKKGRRNQSVEP [ZMYND11]	5.2 ± 0.32	5.12 ± 0.44
ENAAFKDVALVLTVLLEEETLEAS [TOR1AIP2]	2.31 ± 0.33	2.4 ± 0.34
FAIGVCTGLVGLFVDFFVRLFTQL [CLCN6]	2.65 ± 0.52	2.32 ± 0.56
DSVPFHLGWNSTERSLRLQARYHD [MYORG]	3.59 ± 0.24	3.51 ± 0.17
GTTYLPGIVGLNNIKANDYANAVL [USP39]	2.47 ± 0.097	2.44 ± 0.23
PALAPVPRNSCITCPQCHRSLILD [TRIM9]	3.31 ± 0.3	3.37 ± 0.33
LLGFLRIRVRGQRASRLQAPVLVA [LPCAT4]	2.37 ± 0.52	2.12 ± 0.29
TEGGNDDSDFRELHTAREFSEEDE [RTN2]	5.42 ± 0.36	5.13 ± 0.71
DKEGHLVCRIGDWLQERYEIVGNL [CLK3]	2.8 ± 0.56	2.89 ± 0.47
